Tests used:
[1] = biological target: T1, recombinant human IL1RAP ECD (human, UniProt Q9NPH3 21-367); assay: SPR (ProteOn)
T1 construct: His-tagged; also called hIL1RAP-ECD; rhuIL1RAP
T1 sequence: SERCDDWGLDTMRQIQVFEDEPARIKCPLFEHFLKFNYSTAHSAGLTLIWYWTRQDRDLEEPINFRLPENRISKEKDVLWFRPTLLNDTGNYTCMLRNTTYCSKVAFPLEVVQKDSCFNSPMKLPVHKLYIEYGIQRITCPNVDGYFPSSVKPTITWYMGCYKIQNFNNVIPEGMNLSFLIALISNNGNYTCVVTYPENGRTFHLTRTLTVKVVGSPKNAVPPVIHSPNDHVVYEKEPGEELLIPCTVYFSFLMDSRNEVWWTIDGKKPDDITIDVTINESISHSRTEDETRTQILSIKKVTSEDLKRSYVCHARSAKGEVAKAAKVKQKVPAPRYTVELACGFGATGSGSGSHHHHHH
Method: The rates of IL1RAP ECD association and dissociation were measured for each variant. The biosensor surface was prepared by covalently coupling Goat anti-Human IgG (Fc) to the surface of a GLC chip (BioRad) using the manufacturer instructions for amine-coupling chemistry. […] The RU immobilized also included a goat anti-mouse Fc antibody that was added to capture other antibodies not included in the ones reported here. Since the mixture was 1:1 about 50% of these RU immobilized are expected to be goat anti-human Fc. The kinetic experiments were performed at 25° C. in running buffer (PBS pH 7.4, 0.005% P20, 3 mM EDTA). […] (1:3) serial dilutions of human IL1RAP ECD, starting at 400 nM were prepared in running buffer. […] The reference spots (Goat anti-Human IgG (Fc)-modified surface) containing no candidate captured were used as a reference surface. Capture of mAb was followed by a 3 minute injection (association phase) of antigen at 40 μL/min, followed by 10 minutes of buffer flow (dissociation phase). […] Data was processed on the instrument software. Double reference subtraction of the data was performed by subtracting the curves generated by buffer injection from the reference-subtracted curves for analyte injections. Kinetic analysis of the data was performed using 1:1 Langmuir binding model with group fit.

[2] = biological target: T1, recombinant human IL1RAP ECD; assay: SPR
[3] = biological target: T1, recombinant human IL1RAP ECD; assay: SPR; human KD over cyno KD
[4] = biological target: T1, recombinant human IL1RAP ECD; assay: SPR; remark: listed apart in the source
[5] = biological target: T2, recombinant cyno IL1RAP ECD (cynomolgus monkey, UniProt P59822 21-367 (rhesus entry)); assay: SPR
T2 construct: also called rcynoIL1RAP
T2 sequence: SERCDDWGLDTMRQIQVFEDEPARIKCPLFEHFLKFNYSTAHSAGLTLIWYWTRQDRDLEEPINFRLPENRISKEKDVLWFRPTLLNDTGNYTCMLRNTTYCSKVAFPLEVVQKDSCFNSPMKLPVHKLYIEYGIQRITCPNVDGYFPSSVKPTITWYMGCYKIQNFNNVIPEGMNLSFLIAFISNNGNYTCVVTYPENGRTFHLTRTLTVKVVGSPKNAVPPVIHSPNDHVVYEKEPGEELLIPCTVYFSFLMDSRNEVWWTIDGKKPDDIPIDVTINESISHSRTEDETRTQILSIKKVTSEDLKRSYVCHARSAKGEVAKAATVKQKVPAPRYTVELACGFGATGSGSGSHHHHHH

[6] = biological target: T1, recombinant human IL1RAP ECD; assay: SPR, summary
[7] = biological target: T2, recombinant cyno IL1RAP ECD; assay: SPR, summary
[8] = biological target: T2, recombinant cyno IL1RAP ECD; assay: SPR; remark: listed apart in the source
[9] = biological target: T3, human IL1RAP on cells (endogenous) (human, UniProt Q9NPH3 21-570); assay: cell-based or functional assay
T3 sequence (looked up): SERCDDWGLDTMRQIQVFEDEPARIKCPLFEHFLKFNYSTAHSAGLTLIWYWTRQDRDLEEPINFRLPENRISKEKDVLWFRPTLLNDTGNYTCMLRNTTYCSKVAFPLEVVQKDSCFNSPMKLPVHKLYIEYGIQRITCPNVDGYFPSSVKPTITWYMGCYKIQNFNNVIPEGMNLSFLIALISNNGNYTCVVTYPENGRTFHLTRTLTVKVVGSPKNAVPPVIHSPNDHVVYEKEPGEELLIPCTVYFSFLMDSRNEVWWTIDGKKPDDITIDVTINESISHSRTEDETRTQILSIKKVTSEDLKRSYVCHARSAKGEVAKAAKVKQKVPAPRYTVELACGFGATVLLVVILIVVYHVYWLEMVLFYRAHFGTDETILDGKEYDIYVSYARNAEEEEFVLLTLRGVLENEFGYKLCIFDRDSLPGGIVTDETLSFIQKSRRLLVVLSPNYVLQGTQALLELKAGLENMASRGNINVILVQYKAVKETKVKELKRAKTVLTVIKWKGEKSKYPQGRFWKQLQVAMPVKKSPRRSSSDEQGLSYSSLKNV

B1: IAPB57, 5G08 (hybridoma mAb, unpurified) (antibody, V domains shown)
VH: QLQLQESGPGLVKPSETLSLTCTVSGGSISSSTYYWGWIRQPPGKGLEWIGSIYFTGSTDYNPSLKSRVSISVDTSKNQFSLKLSSVTAADTAVYYCAKEDDSSGYYSFDYWGQGNLVTVSS
VL: DIQLTQSPSFLSASVGDRVTITCRASQGISSYLAWYQQKPGKAPKLLIYAASTLQSGVPSRFSGSGSGTEFTLTISSLQPEDFATYYCQQVNSYPLTFGGGTKVEIK
notes: OmniRat hybridoma product (rat constant region)
Kd [1]: 0.16 nM
koff [1]: 0.000129 s⁻¹
kon [1]: 807000 M⁻¹ s⁻¹

B2: IC3B1 (bispecific antibody, human IgG4 S228P, kappa, lambda, F234A L235A)
heavy 1: EVQLVESGGGLVQPGGSLKLSCAASGFTFNTYAMNWVRQASGKGLEWVGRIRSKYNAYATYYAASVKGRFTISRDDSKNTAYLQMNSLKTEDTAVYYCTRHGNFGNSYVSWFAYWGQGTLVTVSSASTKGPSVFPLAPCSRSTSESTAALGCLVKDYFPEPVTVSWNSGALTSGVHTFPAVLQSSGLYSLSSVVTVPSSSLGTKTYTCNVDHKPSNTKVDKRVESKYGPPCPPCPAPEAAGGPSVFLFPPKPKDTLMISRTPEVTCVVVDVSQEDPEVQFNWYVDGVEVHNAKTKPREEQFNSTYRVVSVLTVLHQDWLNGKEYKCKVSNKGLPSSIEKTISKAKGQPREPQVYTLPPSQEEMTKNQVSLTCLVKGFYPSDIAVEWESNGQPENNYKTTPPVLDSDGSFLLYSKLTVDKSRWQEGNVFSCSVMHEALHNHYTQKSLSLSLGK
light 1: QAVVTQEPSLTVSPGGTVTLTCRSSTGAVTTSNYANWVQQKPGQAPRGLIGGTNKRAPGTPARFSGSLLGGKAALTLSGAQPEDEAEYYCALWYSNLWVFGGGTKLTVLGQPKAAPSVTLFPPSSEELQANKATLVCLISDFYPGAVTVAWKADSSPVKAGVETTTPSKQSNNKYAASSYLSLTPEQWKSHRSYSCQVTHEGSTVEKTVAPTECS
heavy 2: not shown
light 2: EIVLTQSPGTLSLSPGERATLSCRASQSISNDLNWYQQKPGKAPKLLIYYASSLQSGVPSRFSGSGSGTDFTLTINSLQPEDFATYYCQQSFTAPLTFGQGTKVEIKRTVAAPSVFIFPPSDEQLKSGTASVVCLLNNFYPREAKVQWKVDNALQSGNSQESVTEQDSKDSTYSLSSTLTLSKADYEKHKVYACEVTHQGLSSPVTKSFNRGEC
notes: IgG4-PAA, Fab arm exchange; also called IAPB47 x CD3B220
Kd [2]: 1.09 nM
koff [2]: 0.000759 s⁻¹
kon [2]: 697000 M⁻¹ s⁻¹
Hu/Cyno KD Ratio [3]: 5.1
Kd [4]: 1.09 nM
Kd [5]: 0.212 nM
Kd [6]: 1.09 nM
Kd [7]: 0.212 nM
Kd [8]: 0.212 nM
koff [8]: 0.000236 s⁻¹
kon [8]: 1.11e+06 M⁻¹ s⁻¹
EC50, T-cell mediated cytotoxicity [9]: 0.049 nM

B3: IC3B4 (bispecific antibody, human IgG4 S228P, kappa, lambda, F234A L235A)
heavy 1: EVQLVESGGGLVQPGGSLKLSCAASGFTFNTYAMNWVRQASGKGLEWVGRIRSKYNAYATYYAASVKGRFTISRDDSKNTAYLQMNSLKTEDTAVYYCTRHGNFGNSYVSWFAYWGQGTLVTVSSASTKGPSVFPLAPCSRSTSESTAALGCLVKDYFPEPVTVSWNSGALTSGVHTFPAVLQSSGLYSLSSVVTVPSSSLGTKTYTCNVDHKPSNTKVDKRVESKYGPPCPPCPAPEAAGGPSVFLFPPKPKDTLMISRTPEVTCVVVDVSQEDPEVQFNWYVDGVEVHNAKTKPREEQFNSTYRVVSVLTVLHQDWLNGKEYKCKVSNKGLPSSIEKTISKAKGQPREPQVYTLPPSQEEMTKNQVSLTCLVKGFYPSDIAVEWESNGQPENNYKTTPPVLDSDGSFLLYSKLTVDKSRWQEGNVFSCSVMHEALHNHYTQKSLSLSLGK
light 1: QAVVTQEPSLTVSPGGTVTLTCRSSTGAVTTSNYANWVQQKPGQAPRGLIGGTNKRAPGTPARFSGSLLGGKAALTLSGAQPEDEAEYYCALWYSNLWVFGGGTKLTVLGQPKAAPSVTLFPPSSEELQANKATLVCLISDFYPGAVTVAWKADSSPVKAGVETTTPSKQSNNKYAASSYLSLTPEQWKSHRSYSCQVTHEGSTVEKTVAPTECS
heavy 2: not shown
light 2: not shown
notes: IgG4-PAA, Fab arm exchange; also called IAPB61 x CD3B220
Kd [2]: 11.2 nM
koff [2]: 0.0129 s⁻¹
kon [2]: 1.15e+06 M⁻¹ s⁻¹
Hu/Cyno KD Ratio [3]: 1.1
Kd [4]: 11.2 nM
Kd [5]: 10.2 nM
Kd [6]: 11.2 nM
Kd [7]: 10.2 nM
Kd [8]: 10.2 nM
koff [8]: 0.0148 s⁻¹
kon [8]: 1.46e+06 M⁻¹ s⁻¹

B4: IC3B9 (bispecific antibody, human IgG4 S228P, kappa, lambda, F234A L235A)
heavy 1: EVQLVESGGGLVQPGGSLKLSCAASGFTFNTYAMNWVRQASGKGLEWVGRIRSKYNAYATYYAASVKGRFTISRDDSKNTAYLQMNSLKTEDTAVYYCTRHGNFGNSYVSWFAYWGQGTLVTVSSASTKGPSVFPLAPCSRSTSESTAALGCLVKDYFPEPVTVSWNSGALTSGVHTFPAVLQSSGLYSLSSVVTVPSSSLGTKTYTCNVDHKPSNTKVDKRVESKYGPPCPPCPAPEAAGGPSVFLFPPKPKDTLMISRTPEVTCVVVDVSQEDPEVQFNWYVDGVEVHNAKTKPREEQFNSTYRVVSVLTVLHQDWLNGKEYKCKVSNKGLPSSIEKTISKAKGQPREPQVYTLPPSQEEMTKNQVSLTCLVKGFYPSDIAVEWESNGQPENNYKTTPPVLDSDGSFLLYSKLTVDKSRWQEGNVFSCSVMHEALHNHYTQKSLSLSLGK
light 1: QAVVTQEPSLTVSPGGTVTLTCRSSTGAVTTSNYANWVQQKPGQAPRGLIGGTNKRAPGTPARFSGSLLGGKAALTLSGAQPEDEAEYYCALWYSNLWVFGGGTKLTVLGQPKAAPSVTLFPPSSEELQANKATLVCLISDFYPGAVTVAWKADSSPVKAGVETTTPSKQSNNKYAASSYLSLTPEQWKSHRSYSCQVTHEGSTVEKTVAPTECS
heavy 2: not shown
light 2: not shown
notes: IgG4-PAA, Fab arm exchange; also called IAPB25 x CD3B220
Kd [2]: 29.7 nM
koff [2]: 0.0547 s⁻¹
kon [2]: 1.84e+06 M⁻¹ s⁻¹
Hu/Cyno KD Ratio [3]: 1.1
Kd [4]: 29.7 nM
Kd [5]: 27.8 nM
Kd [6]: 29.7 nM
Kd [7]: 27.8 nM
Kd [8]: 27.8 nM
koff [8]: 0.053 s⁻¹
kon [8]: 1.91e+06 M⁻¹ s⁻¹

B5: IAPB55, 22A09 (hybridoma mAb, unpurified) (antibody, V domains shown)
VH: QLQLQESGPGLVKPSETLSLTCTVSGVSISSSTYYWGWLRQPPGMGLEWTGSIYFTGNTYYNPSLKSRVTISVDTSRNQFSLKLSSVTAADTAVYYCGSLFGDYGYFDYWGQGTLVTVSS
VL: EIVMTQSPATLSVSPGERATLSCRASQFISSNLAWYQQKPGQAPRLLIYGASTRATGIPARFSGSGSGTDFTLTISSLQSEDFAVYYCQQYNNWPFTFGPGTKVDIK
notes: as for B1
Kd [1]: 1.64 nM
koff [1]: 0.000747 s⁻¹
kon [1]: 454000 M⁻¹ s⁻¹

B6: IAPB61, 25D12 (hybridoma mAb, unpurified) (antibody, V domains shown)
VH: QLQLQESGPGLVKPSETLSLTCTVSGVSISSSTYYWGWLRQPPGMGLEWTGSIYFTGNTYYNPSLKSRVTISVDTSRNQFSLKLSSVTAADTAVYYCGSLFGDYGYFDYWGQGTLVTVSS
VL: EIVMTQSPATLSVPPGERATLSCRASQFISSNLAWYQQKPGQAPRLLIYGASTRATGIPARFSGSGSGTDFTLTISSLQSEDFAVYYCQQYNNWPSTFGPGTKVDIK
notes: as for B1
Kd [1]: 17.5 nM
koff [1]: 0.0142 s⁻¹
kon [1]: 810000 M⁻¹ s⁻¹

Reference: US20190270826A1 (Janssen / Centocor, published 2019)
